Ends that are not written are not given here.
Target: T1, Clostridioides difficile Toxin A labelled with Alexa Fluor 594 (Clostridioides difficile, UniProt P16154 1-2710)
T1 construct: also called TcdA-AF594; red fluorescently labeled TcdA
Assay: bead-based fluorescence imaging
Details: both partners purified

T1 sequence (P16154 whole entry, looked up): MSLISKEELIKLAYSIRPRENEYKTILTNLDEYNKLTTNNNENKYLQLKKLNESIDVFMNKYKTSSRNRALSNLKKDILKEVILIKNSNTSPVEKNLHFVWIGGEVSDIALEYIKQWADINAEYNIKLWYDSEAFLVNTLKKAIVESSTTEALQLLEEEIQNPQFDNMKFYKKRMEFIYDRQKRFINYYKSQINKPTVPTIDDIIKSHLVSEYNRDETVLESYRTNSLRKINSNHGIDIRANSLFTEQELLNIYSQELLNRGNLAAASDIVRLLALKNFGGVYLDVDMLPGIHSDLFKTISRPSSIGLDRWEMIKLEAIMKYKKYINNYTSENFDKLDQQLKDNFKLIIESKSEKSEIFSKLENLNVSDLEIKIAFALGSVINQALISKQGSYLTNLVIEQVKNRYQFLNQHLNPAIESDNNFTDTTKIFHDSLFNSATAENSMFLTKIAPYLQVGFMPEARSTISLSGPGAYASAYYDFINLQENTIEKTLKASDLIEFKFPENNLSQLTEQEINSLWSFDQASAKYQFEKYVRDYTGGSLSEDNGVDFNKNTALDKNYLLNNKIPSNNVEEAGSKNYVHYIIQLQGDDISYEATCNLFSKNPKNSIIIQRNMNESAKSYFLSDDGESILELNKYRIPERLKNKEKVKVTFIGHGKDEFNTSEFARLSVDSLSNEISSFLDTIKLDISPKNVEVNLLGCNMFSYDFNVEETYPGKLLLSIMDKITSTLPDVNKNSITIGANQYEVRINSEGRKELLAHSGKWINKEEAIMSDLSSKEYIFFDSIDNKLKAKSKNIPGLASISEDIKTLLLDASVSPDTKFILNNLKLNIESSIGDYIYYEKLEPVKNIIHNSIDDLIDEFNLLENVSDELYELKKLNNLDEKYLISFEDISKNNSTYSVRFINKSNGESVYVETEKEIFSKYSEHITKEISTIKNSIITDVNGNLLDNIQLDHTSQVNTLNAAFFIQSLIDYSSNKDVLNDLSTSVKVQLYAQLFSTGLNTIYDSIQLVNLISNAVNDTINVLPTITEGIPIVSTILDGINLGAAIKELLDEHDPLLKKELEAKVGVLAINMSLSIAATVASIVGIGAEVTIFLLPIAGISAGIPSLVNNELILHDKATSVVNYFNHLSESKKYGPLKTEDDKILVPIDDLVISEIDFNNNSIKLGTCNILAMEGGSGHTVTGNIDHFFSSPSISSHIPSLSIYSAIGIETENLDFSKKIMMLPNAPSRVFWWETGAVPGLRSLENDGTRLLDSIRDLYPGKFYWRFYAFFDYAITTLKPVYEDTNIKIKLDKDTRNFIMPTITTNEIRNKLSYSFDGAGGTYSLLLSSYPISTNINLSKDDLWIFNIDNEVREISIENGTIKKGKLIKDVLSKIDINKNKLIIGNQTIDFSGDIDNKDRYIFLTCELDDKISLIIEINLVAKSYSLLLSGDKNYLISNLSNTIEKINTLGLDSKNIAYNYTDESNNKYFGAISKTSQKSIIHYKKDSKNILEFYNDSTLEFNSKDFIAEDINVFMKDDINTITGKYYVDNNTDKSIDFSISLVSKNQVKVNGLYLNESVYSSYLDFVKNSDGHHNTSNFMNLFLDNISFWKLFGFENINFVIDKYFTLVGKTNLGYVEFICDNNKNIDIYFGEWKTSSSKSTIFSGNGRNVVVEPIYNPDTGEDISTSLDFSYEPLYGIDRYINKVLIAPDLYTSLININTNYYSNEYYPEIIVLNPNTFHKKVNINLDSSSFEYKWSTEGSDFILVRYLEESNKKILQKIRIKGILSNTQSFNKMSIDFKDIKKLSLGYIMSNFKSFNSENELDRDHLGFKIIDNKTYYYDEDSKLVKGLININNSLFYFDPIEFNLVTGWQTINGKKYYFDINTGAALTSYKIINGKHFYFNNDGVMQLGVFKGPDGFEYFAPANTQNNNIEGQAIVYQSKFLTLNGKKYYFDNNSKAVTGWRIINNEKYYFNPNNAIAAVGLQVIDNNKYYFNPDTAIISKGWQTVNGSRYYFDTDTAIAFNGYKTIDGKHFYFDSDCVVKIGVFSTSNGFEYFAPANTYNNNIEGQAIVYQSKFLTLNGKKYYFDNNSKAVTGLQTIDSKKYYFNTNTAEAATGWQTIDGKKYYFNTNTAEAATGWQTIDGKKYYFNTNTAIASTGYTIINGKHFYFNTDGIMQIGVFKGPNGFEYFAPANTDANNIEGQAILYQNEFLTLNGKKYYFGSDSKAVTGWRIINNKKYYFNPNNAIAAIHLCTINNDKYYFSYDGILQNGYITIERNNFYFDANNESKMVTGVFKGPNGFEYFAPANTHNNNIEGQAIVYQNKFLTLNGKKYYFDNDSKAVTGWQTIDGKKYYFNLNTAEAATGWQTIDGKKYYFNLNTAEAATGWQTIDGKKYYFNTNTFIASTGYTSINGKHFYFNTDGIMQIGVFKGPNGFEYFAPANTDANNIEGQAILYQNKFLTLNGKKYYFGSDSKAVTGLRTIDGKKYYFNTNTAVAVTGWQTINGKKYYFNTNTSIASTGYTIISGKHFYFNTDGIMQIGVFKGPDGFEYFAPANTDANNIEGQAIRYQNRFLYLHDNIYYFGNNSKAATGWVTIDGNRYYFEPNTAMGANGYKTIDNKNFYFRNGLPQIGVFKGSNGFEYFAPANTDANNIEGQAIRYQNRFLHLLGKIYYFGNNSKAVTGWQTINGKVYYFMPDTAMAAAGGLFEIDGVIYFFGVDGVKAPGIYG

Binder | binding result
QDWMRRHWGSG (also: on ChemMatrix Aminomethyl bead via GSG linker) [SA2 on ChemMatrix Aminomethyl bead (GSG linker)] | binds
MFWEHRHRGSG (also: on ChemMatrix Aminomethyl bead via GSG linker) [SA4 on ChemMatrix Aminomethyl bead (GSG linker)] | binds

— article PMC10460389, “Design of 8-mer peptides that block Clostridioides difficile toxin A in intestinal cells” (Communications Biology, 2023)
